From patent publication US20230201364A1 come the findings set out here.

For assay [1], the target named is Fc gamma receptor IIb (FcgRIIb, CD32b) (human) (UniProt P31994). Put plainly: AlphaLISA competition or analogous assay for FcγRIIb (not described).
In assay [2] the target is recombinant biotinylated human Fc gamma receptor IIIa (FcγRIIIa/CD16) (human) (UniProt P08637). Put plainly: AlphaLISA competition; test molecule titrated against human IgG Fc acceptor beads for biotinylated FcγRIIIa. On the technique in general: Alpha assays give light when donor and acceptor beads are brought close together.
Assay [3] concerns the target recombinant biotinylated human Fc gamma receptor I (FcγRI/CD64) (human) (UniProt P12314). The assay can be described thus: AlphaLISA competition; test molecule titrated against human IgG Fc acceptor beads for biotinylated FcγRI.
In assay [4] the target is recombinant biotinylated human Fc gamma receptor IIa (FcγRIIa/CD32a 167H) (human) (UniProt P12318). Put plainly: AlphaLISA competition; test molecule titrated against human IgG Fc acceptor beads for biotinylated FcγRIIa.
The target of assay [5] is recombinant biotinylated human neonatal Fc receptor (FcRn) (human) (UniProt P55899). Put plainly: AlphaLISA competition at pH 6; test molecule titrated against human IgG acceptor beads for biotinylated human FcRn.
Sequence of recombinant biotinylated human neonatal Fc receptor (FcRn) (human) (P55899 24-297 limits assumed, chain 1 of 2): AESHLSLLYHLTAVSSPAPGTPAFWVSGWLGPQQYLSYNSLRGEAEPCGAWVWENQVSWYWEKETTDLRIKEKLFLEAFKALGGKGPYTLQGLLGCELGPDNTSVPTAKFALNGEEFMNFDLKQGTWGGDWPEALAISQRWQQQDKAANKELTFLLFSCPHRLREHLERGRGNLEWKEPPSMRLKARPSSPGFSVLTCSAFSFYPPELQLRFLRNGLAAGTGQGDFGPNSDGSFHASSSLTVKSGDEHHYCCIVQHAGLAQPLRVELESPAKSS
Sequence of recombinant biotinylated human neonatal Fc receptor (FcRn) (human) (chain, as listed by the source limits assumed, chain 2 of 2): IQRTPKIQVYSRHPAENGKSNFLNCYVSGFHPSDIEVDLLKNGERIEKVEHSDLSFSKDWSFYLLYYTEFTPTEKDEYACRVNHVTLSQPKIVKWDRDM

Sequence of recombinant biotinylated human Fc gamma receptor IIa (FcγRIIa/CD32a 167H) (human) (P12318 36-218 limits assumed): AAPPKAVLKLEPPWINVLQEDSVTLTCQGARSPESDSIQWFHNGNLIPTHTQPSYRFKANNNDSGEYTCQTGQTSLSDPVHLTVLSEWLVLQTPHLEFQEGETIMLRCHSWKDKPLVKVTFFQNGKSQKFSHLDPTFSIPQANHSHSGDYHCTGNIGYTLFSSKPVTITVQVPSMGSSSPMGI
Sequence of recombinant biotinylated human Fc gamma receptor IIIa (FcγRIIIa/CD16) (human) (P08637 17-208 limits assumed): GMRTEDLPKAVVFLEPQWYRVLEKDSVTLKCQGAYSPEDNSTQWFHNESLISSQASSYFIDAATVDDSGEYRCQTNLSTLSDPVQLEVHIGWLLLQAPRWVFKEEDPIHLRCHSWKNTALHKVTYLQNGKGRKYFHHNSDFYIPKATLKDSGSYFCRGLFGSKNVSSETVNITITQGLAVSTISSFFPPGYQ
Sequence of Fc gamma receptor IIb (FcgRIIb, CD32b) (human) (P31994 46-217 limits assumed): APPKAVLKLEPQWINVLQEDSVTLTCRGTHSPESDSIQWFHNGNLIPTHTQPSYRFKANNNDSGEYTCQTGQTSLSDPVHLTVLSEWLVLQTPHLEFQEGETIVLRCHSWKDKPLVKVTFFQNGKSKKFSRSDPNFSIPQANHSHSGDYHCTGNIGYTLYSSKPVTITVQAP
Sequence of recombinant biotinylated human Fc gamma receptor I (FcγRI/CD64) (human) (P12314 16-288 limits assumed): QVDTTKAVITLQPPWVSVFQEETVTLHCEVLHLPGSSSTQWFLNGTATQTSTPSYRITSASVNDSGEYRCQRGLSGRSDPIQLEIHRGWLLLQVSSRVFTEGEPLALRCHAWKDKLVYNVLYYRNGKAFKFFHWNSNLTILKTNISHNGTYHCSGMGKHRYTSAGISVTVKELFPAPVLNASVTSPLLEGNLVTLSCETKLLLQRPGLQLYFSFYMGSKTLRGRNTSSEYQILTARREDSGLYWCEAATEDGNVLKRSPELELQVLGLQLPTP

B1: CMP-016 (LZM-009 conjugated to CMP-003, DAR 1, K248) (antibody)
VH: QVQLVQSGAEVKKPGASVKVSCKASGYTFTSYYMYWVRQAPGQGLEWMGGVNPSNGGTNFNEKFKSRVTITADKSTSTAYMELSSLRSEDTAVYYCARRDYRYDMGFDYWGQGTTVTVSS
VL: EIVLTQSPATLSLSPGERATISCRASKGVSTSGYSYLHWYQQKPGQAPRLLIYLASYLESGVPARFSGSGSGTDFTLTISSLEPEDFATYYCQHSRELPLTFGTGTKVEIK
chain: APTSSSTKKTQLQLEHLLLDLQXILNGINNYKNPKLTRXLXYKFYXPKKATELKHLQCLEEELKPLEEVLXLAQSKNFHLRPRDLISNINVIVLELKGSETTFXCEYADETATIVEFLNRWITFSQSIISTLT
modifications: not fully specified; Nle at 23, 39, 46 and Hse at 41, 71, 104 (as in SEQ ID NO: 3); ~0.5 kDa PEG on Y45; 0.5 kDa PEG on F42Y whose azide end is joined to the DBCO linker of the antibody; the heavy chain carries a chemical linker to CMP-003 on Lys K248 (Eu numbering) of the Fc; DAR 1
In the case of B1, the Kd in assay [1] came to 4710 nM; in assay [2], 481 nM; in assay [3] it was 3.81 nM; in assay [4], 1140 nM; in assay [5], 25.3 nM.

B2: CMP-102 (LZM-009 conjugated to CMP-003, DAR 1, K288) (antibody)
VH: QVQLVQSGAEVKKPGASVKVSCKASGYTFTSYYMYWVRQAPGQGLEWMGGVNPSNGGTNFNEKFKSRVTITADKSTSTAYMELSSLRSEDTAVYYCARRDYRYDMGFDYWGQGTTVTVSS
VL: EIVLTQSPATLSLSPGERATISCRASKGVSTSGYSYLHWYQQKPGQAPRLLIYLASYLESGVPARFSGSGSGTDFTLTISSLEPEDFATYYCQHSRELPLTFGTGTKVEIK
chain: APTSSSTKKTQLQLEHLLLDLQXILNGINNYKNPKLTRXLXYKFYXPKKATELKHLQCLEEELKPLEEVLXLAQSKNFHLRPRDLISNINVIVLELKGSETTFXCEYADETATIVEFLNRWITFSQSIISTLT
modifications: not fully specified; Nle at 23, 39, 46 and Hse at 41, 71, 104 (as in SEQ ID NO: 3); ~0.5 kDa PEG on Y45; 0.5 kDa PEG on F42Y whose azide end is joined to the DBCO linker of the antibody; the heavy chain carries a chemical linker to CMP-003 on Lys K288 (Eu numbering) of the Fc; DAR 1
Turning to B2, the Kd was 6680 nM in assay [1]; 272 nM in assay [2]; 2.3 nM in assay [3]; 1180 nM in assay [4]; 10.7 nM in assay [5].

B3: CMP-028 (LZM-009 conjugated to CMP-003, DAR 1.9, K288) (antibody)
VH: QVQLVQSGAEVKKPGASVKVSCKASGYTFTSYYMYWVRQAPGQGLEWMGGVNPSNGGTNFNEKFKSRVTITADKSTSTAYMELSSLRSEDTAVYYCARRDYRYDMGFDYWGQGTTVTVSS
VL: EIVLTQSPATLSLSPGERATISCRASKGVSTSGYSYLHWYQQKPGQAPRLLIYLASYLESGVPARFSGSGSGTDFTLTISSLEPEDFATYYCQHSRELPLTFGTGTKVEIK
chain: APTSSSTKKTQLQLEHLLLDLQXILNGINNYKNPKLTRXLXYKFYXPKKATELKHLQCLEEELKPLEEVLXLAQSKNFHLRPRDLISNINVIVLELKGSETTFXCEYADETATIVEFLNRWITFSQSIISTLT
modifications: not fully specified; Nle at 23, 39, 46 and Hse at 41, 71, 104 (as in SEQ ID NO: 3); ~0.5 kDa PEG on Y45; 0.5 kDa PEG on F42Y whose azide end is joined to the DBCO linker of the antibody; the heavy chain carries a chemical linker to CMP-003 on Lys K288 (Eu numbering) of the Fc; DAR 1.9
Regarding B3, the Kd in assay [1] was found to be 3340 nM; in assay [2], 5410 nM; in assay [3] it was 12 nM; in assay [4], 1870 nM; in assay [5], 27.1 nM.

Usually Kd stands for the free concentration of one partner at which half of the binding sites on the other are occupied at equilibrium, for simple one-to-one binding.
